Data: patent CN116178530A (SHANGHAI JUNSHI BIOSCIENCES CO LTD; JUNMENG BIOSCIENCES CO …, dated 2023)

Experiments:
[1] = biological target: SARS-CoV-2的Kappa突变株(B.1.617.1)假病毒的刺突蛋白 (SARS-CoV-2, UniProt P0DTC2 14-1273); assay: cell-based or functional assay
[2] = biological target: SARS-CoV-2的Delta突变株(B.1.617.2)假病毒的刺突蛋白 (SARS-CoV-2, UniProt P0DTC2 14-1273); assay: cell-based or functional assay
[3] = biological target: SARS-CoV-2的Alpha突变株(B.1.1.7)假病毒的刺突蛋白 (SARS-CoV-2, UniProt P0DTC2 14-1273); assay: cell-based or functional assay
[4] = biological target: SARS-CoV-2的Beta突变株(B.1.351)假病毒的刺突蛋白 (SARS-CoV-2, UniProt P0DTC2 14-1273); assay: cell-based or functional assay
[5] = biological target: SARS-CoV-2的Gamma突变株(P.1)假病毒的刺突蛋白 (SARS-CoV-2, UniProt P0DTC2 14-1273); assay: cell-based or functional assay
[6] = biological target: Delta突变株RBD蛋白(货号SPD-C82Ed，ACRO Biosystems) (SARS-CoV-2, UniProt P0DTC2 319-537)
[7] = biological target: Beta突变株RBD蛋白(货号SPD-C82E5，ACRO Biosystems) (SARS-CoV-2, UniProt P0DTC2 319-537)
[8] = biological target: Epsilon突变株RBD蛋白(货号SPD-C82E3，ACRO Biosystems) (SARS-CoV-2, UniProt P0DTC2 319-537)
[9] = biological target: Gamma突变株RBD蛋白(货号SPD-C82E7，ACRO Biosystems) (SARS-CoV-2, UniProt P0DTC2 319-537)
[10] = biological target: Alpha突变株RBD蛋白(货号SPD-C82E6，ACRO Biosystems) (SARS-CoV-2, UniProt P0DTC2 319-537)
[11] = biological target: Kappa突变株RBD蛋白(货号SPD-C82Ec，ACRO Biosystems) (SARS-CoV-2, UniProt P0DTC2 319-537)

B1: JS5-10 (antibody, human IgG1, kappa, L234A L235A, V domains shown)
VH: EVQLLESGGGLVQPGGSLRLSCAASGFTFSSYAMSWVRQAPGKGLEWVSAIVGSGGSTYYADSVKGRFIISRDNSKNTLYLQMNSLRAEDTAVYYCAKSLIYGHYDILTGAYYFDYWGQGTLVTVSS
VL: DIQMTQSPSSVSASVGDRVTIPCRASQGIGNWLAWYQQKPGKAPKLLIYAASSLQSGVPSRFSGSGSGTDFTLTISSLQPEDFATYYCQQANSFPPFGQGTRLEIKR
**Q.** How did the “假病毒中和 IC50 (荧光素酶报告基因, 293-ACE2细胞)” value [1] turn out when B1 was run?
**A.** 5.4 ng/mL

**Q.** And the “假病毒中和 IC50 (荧光素酶报告基因, 293-ACE2细胞)” value [2]?
**A.** 5.56 ng/mL

**Q.** What about the “假病毒中和 IC50 (荧光素酶报告基因, 293-ACE2细胞)” value [3] of the same binder?
**A.** 1.18 ng/mL

**Q.** And the “假病毒中和 IC50 (荧光素酶报告基因, 293-ACE2细胞)” value [4]?
**A.** 8.47 ng/mL

**Q.** And the “假病毒中和 IC50 (荧光素酶报告基因, 293-ACE2细胞)” value [5]?
**A.** 0.449 ng/mL

**Q.** What about the Kd [6] of the same binder?
**A.** 0.73 nM

**Q.** What about the koff [6] of the same binder?
**A.** 0.000161 s⁻¹

**Q.** What about the kon [6] of the same binder?
**A.** 220000 M⁻¹ s⁻¹

**Q.** What about the Kd [7] of the same binder?
**A.** 0.88 nM

**Q.** And the koff [7]?
**A.** 0.000176 s⁻¹

**Q.** And the kon [7]?
**A.** 201000 M⁻¹ s⁻¹

**Q.** What about the Kd [8] of the same binder?
**A.** 1.17 nM

**Q.** What about the koff [8] of the same binder?
**A.** 0.000226 s⁻¹

**Q.** What about the kon [8] of the same binder?
**A.** 193000 M⁻¹ s⁻¹

**Q.** And the Kd [9]?
**A.** 1.12 nM

**Q.** What about the koff [9] of the same binder?
**A.** 0.000241 s⁻¹

**Q.** And the kon [9]?
**A.** 216000 M⁻¹ s⁻¹

**Q.** What about the Kd [10] of the same binder?
**A.** 1.3 nM

**Q.** And the koff [10]?
**A.** 0.000316 s⁻¹

**Q.** What about the kon [10] of the same binder?
**A.** 243000 M⁻¹ s⁻¹

**Q.** What about the Kd [11] of the same binder?
**A.** 0.875 nM

**Q.** And the koff [11]?
**A.** 0.000172 s⁻¹

**Q.** What about the kon [11] of the same binder?
**A.** 196000 M⁻¹ s⁻¹
